{"source": "patent US20240307560A1", "about": "“HEPTAMETHINE CARBOCYANINE DYE-DOTA CONJUGATES COMPLEXED WITH LUTETIUM-177, YTTRIUM-90, OR GALLIUM-68, AND THEIR USES FOR IMAGE-GUIDED RADIOTHERAPY” (priority 2020, published 2024)", "key": {"in vivo": {"experiment": "in vivo", "design": "species or system Balb/C mice", "details": "Balb/C, mouse, iv", "protocol": "DZ-1-Lys-DOTA-^68Ga (50 μCi) probe was injected into the tail vein of Balb/C mice (n=6, each about 20 g of body weight). Approximately 10 μL of blood from the contralateral tail vein was collected in capillary tubes at 2 min, 5 min, 15 min, 30 min, 1 h, 2 h and 4.5 h post probe injection. The capillaries were placed in pre-weighed tubes to measure the weight and radioactivity of the blood withdrawn. Radioactivity from each sample was measured by a gamma counter with radioactivity decay corrected to the time of probe injection, normalized for injected dose and blood weight, and expressed as percentage injected dose per gram blood (FIG. 2). Each animal was i.v. injected 50 μCi of the probe.\nDZ-1-Lys-DOTA-^177Lu (50 μCi) was injected into the tail vein of Balb/C mice (n=6, about 20 g). Approximately 10 μL of blood from the contralateral tail vein was collected in capillary tubes at 2 min, 5 min, 15 min, 30 min, 1 h, 2 h and 6 h post probe injection. The capillaries were placed in pre-weighed tubes to measure the weight and radioactivity of the blood withdrawn. Radioactivity from each sample was measured by a gamma counter with the radioactivity decay corrected to the time of probe injection, normalized for injected dose and blood weight, and expressed as percentage injected dose per gram blood."}, "[1]": {"system": "MDA-MB-231 breast cancer cells", "experiment": "Cytotoxicity study, CCK-8", "details": "for % cell viability: human", "protocol": "The MDA-MB-231 breast cancer cells were pre-seeded into 96-well plates (10^4 cells/well), and placed in a 37° C., 5% CO2 incubator until the cells were fully attached. Serially diluted DZ-1-Lys-DOTA-^90Y (100 μL) was added to each well (7 concentrations diluted from 20 μCi in half), and 3 replicate wells for each concentration point. After 24 and 48 hours of treatment, the supernatant was discarded, and 10 μL of CCK-8 solution and 100 μL of medium were added to each well. The culture was continued for 1 h in the incubator, and the absorbance of each well at 450 nm was measured with a microplate reader."}, "[2]": {"format": "in vitro ADME, Bovine", "details": "for half-life (stability in serum): bovine", "protocol": "DZ-1-Lys-DOTA-^68Ga was incubated with Fetal Bovine Serum (FBS) at 37° C., and the stability of DZ-1-Lys-DOTA-^68Ga was analyzed by radio-TLC with 0.1M citric acid as eluent.\nThe % purity is a marker for stability, with a higher purity indicating a higher stability.\nThe DZ-1-Lys-DOTA-^177Lu was incubated with Fetal Bovine Serum (FBS) at 37° C., and the probe was analyzed by radio-TLC with 0.1M citric acid as eluent (see FIG. 3). Stability is determined by the percentage of the labeled compound (radiochemical purity).\nThe DZ-1-Lys-DOTA-^90Y was incubated with Fetal Bovine Serum (FBS) (V:V=2:1) at 37° C. and the probe was analyzed by radio-TLC with 0.1M citric acid as eluent."}, "[3]": {"details": "50 uCi, total radioactivity, Normalized radioactivity in blood (% ID/g)"}}}
{"smiles": "CC1(C)C(/C=C/C2=C(Cl)C(=C/C=C3/N(CCCCCC(=O)NCCCCC(NC(=O)CN4CCN(CC(=O)O)CCN(CC(=O)O)CCN(CC(=O)O)CC4)C(=O)O)c4ccccc4C3(C)C)/CCC2)=[N+](CCCCS(=O)(=O)[O-])c2ccccc21", "note": "(single isomer, unassigned) [DZ-1-Lys-DOTA-68Ga, metal not drawn]", "values": [{"measurement": "elimination half-life for blood clearance (T1/2)", "setting": "in vivo", "value": 30, "unit": "min"}, {"measurement": "Normalized radioactivity in blood (% ID/g)", "setting": "in vivo; 50 uCi, 0.25 h", "value": 1.13, "unit": "% ID/g"}, {"measurement": "Normalized radioactivity in blood (% ID/g)", "setting": "in vivo; 50 uCi, 0.5 h", "value": 0.97, "unit": "% ID/g"}, {"measurement": "Normalized radioactivity in blood (% ID/g)", "setting": "in vivo; 50 uCi, 1 h", "value": 0.80, "unit": "% ID/g"}, {"measurement": "Normalized radioactivity in blood (% ID/g)", "setting": "in vivo; 50 uCi, 2 h", "value": 0.70, "unit": "% ID/g"}, {"measurement": "tissue uptake at 2 min", "setting": "in vivo; [3]", "value": 1.83, "unit": "%ID/g"}, {"measurement": "tissue uptake at 5 min", "setting": "in vivo; [3]", "value": 1.44, "unit": "%ID/g"}, {"measurement": "tissue uptake at 4.5 h", "setting": "in vivo; [3]", "value": 0.5, "unit": "%ID/g"}, {"measurement": "tissue uptake", "setting": "in vivo; 50 uCi, total radioactivity, normalized radioactivity in blood (D/g)", "value": "~1.8", "unit": "%ID/g"}]}
{"smiles": "CC1(C)C(/C=C/C2=C(Cl)C(=C/C=C3/N(CCCCCC(=O)NCCCCC(NC(=O)CN4CCN(CC(=O)O)CCN(CC(=O)O)CCN(CC(=O)O)CC4)C(=O)O)c4ccccc4C3(C)C)/CCC2)=[N+](CCCCS(=O)(=O)[O-])c2ccccc21", "note": "(single isomer, unassigned) [DZ-1-Lys-DOTA-90Y, metal not drawn]", "values": [{"measurement": "breast cancer cells caused to die", "setting": "[1]; 20 μCi, within 48 hours", "value": 80, "unit": "%"}, {"measurement": "cancer cell killing compared to free 90Y (in words)", "setting": "[1]; 48 h, 20 microCi", "value": "kills MDA-MB-231 triple-negative breast cancer cells more effectively"}, {"measurement": "% cell viability", "setting": "[1]; 48 h, 0.3125 μCi", "value": 43.92, "unit": "%"}, {"measurement": "% cell viability", "setting": "[1]; 48 h, 0.625 μCi", "value": 42.08, "unit": "%"}, {"measurement": "% cell viability", "setting": "[1]; 48 h, 1.25 μCi", "value": 41.50, "unit": "%"}, {"measurement": "% cell viability", "setting": "[1]; 48 h, 2.5 μCi", "value": 39.63, "unit": "%"}, {"measurement": "% cell viability", "setting": "[1]; 48 h, 5 μCi", "value": 35.57, "unit": "%"}, {"measurement": "% cell viability", "setting": "[1]; 48 h, 10 μCi", "value": 35.46, "unit": "%"}, {"measurement": "% cell viability", "setting": "[1]; 48 h, 20 μCi", "value": 19.21, "unit": "%"}, {"measurement": "retention (radiochemical purity)", "setting": "[2]", "value": "about 30%"}, {"measurement": "half-life (stability in serum)", "setting": "[2]", "value": "about 240 min"}]}
{"smiles": "CC1(C)C(/C=C/C2=C(Cl)C(=C/C=C3/N(CCCCCC(=O)NCCCCC(NC(=O)CN4CCN(CC(=O)O)CCN(CC(=O)O)CCN(CC(=O)O)CC4)C(=O)O)c4ccccc4C3(C)C)/CCC2)=[N+](CCCCS(=O)(=O)[O-])c2ccccc21", "note": "(single isomer, unassigned) [DZ-1-Lys-DOTA-177Lu, metal not drawn]", "values": [{"measurement": "retention (radiochemical purity)", "setting": "[2]", "value": "about 30%"}, {"measurement": "half-life (stability in serum)", "setting": "[2]", "value": "about 700 min"}, {"measurement": "elimination half-life for blood clearance (T1/2)", "setting": "in vivo", "value": 15, "unit": "min"}, {"measurement": "Normalized radioactivity in blood (% ID/g)", "setting": "in vivo; 50 uCi, 2 min", "value": 1.26, "unit": "% ID/g"}, {"measurement": "Normalized radioactivity in blood (% ID/g)", "setting": "in vivo; 50 uCi, 5 min", "value": 0.86, "unit": "% ID/g"}, {"measurement": "Normalized radioactivity in blood (% ID/g)", "setting": "in vivo; 50 uCi, 0.25 h", "value": 0.51, "unit": "% ID/g"}, {"measurement": "Normalized radioactivity in blood (% ID/g)", "setting": "in vivo; 50 uCi, 0.5 h", "value": 0.43, "unit": "% ID/g"}, {"measurement": "Normalized radioactivity in blood (% ID/g)", "setting": "in vivo; 50 uCi, 1 h", "value": 0.36, "unit": "% ID/g"}, {"measurement": "Normalized radioactivity in blood (% ID/g)", "setting": "in vivo; 50 uCi, 2 h", "value": 0.34, "unit": "% ID/g"}, {"measurement": "tissue uptake at 6 h", "setting": "in vivo; [3]", "value": 0.23, "unit": "%ID/g"}]}
